# System: NC(=O)N[C@H]1NC(=O)NC1=O
# Assay: purified protein
# Details: free enzyme, 70 nM monomer, 20 mM potassium phosphate, pH 7.4, 37 °C, racemic allantoin added, table states (S)-allantoin, unclear whether concentration counts racemate or S form
substance,measurement,value
puuE (allantoinase from Pseudomonas fluorescens) (Pseudomonas fluorescens Pf0-1),Km,1350 ± 430 µM
same,kcat,102 s⁻¹
same,kcat/Km,75200 M⁻¹ s⁻¹

# From paper PMC6983136
